In US20040091495A1 (published 2004):

Target: T1, complement factor H (human, UniProt P08603 19-1231, 125I-labelled (Iodobeads) in the blot and bacterial binding assays)
T1 construct: also called fH; FH
Assay: SPR (Biacore), GST:Hic39-261 captured on anti-GST antibody chip, fH as analyte, Langmuir 1:1 model, mean ± SD of three experiments

T1 sequence (P08603 19-1231 limits assumed): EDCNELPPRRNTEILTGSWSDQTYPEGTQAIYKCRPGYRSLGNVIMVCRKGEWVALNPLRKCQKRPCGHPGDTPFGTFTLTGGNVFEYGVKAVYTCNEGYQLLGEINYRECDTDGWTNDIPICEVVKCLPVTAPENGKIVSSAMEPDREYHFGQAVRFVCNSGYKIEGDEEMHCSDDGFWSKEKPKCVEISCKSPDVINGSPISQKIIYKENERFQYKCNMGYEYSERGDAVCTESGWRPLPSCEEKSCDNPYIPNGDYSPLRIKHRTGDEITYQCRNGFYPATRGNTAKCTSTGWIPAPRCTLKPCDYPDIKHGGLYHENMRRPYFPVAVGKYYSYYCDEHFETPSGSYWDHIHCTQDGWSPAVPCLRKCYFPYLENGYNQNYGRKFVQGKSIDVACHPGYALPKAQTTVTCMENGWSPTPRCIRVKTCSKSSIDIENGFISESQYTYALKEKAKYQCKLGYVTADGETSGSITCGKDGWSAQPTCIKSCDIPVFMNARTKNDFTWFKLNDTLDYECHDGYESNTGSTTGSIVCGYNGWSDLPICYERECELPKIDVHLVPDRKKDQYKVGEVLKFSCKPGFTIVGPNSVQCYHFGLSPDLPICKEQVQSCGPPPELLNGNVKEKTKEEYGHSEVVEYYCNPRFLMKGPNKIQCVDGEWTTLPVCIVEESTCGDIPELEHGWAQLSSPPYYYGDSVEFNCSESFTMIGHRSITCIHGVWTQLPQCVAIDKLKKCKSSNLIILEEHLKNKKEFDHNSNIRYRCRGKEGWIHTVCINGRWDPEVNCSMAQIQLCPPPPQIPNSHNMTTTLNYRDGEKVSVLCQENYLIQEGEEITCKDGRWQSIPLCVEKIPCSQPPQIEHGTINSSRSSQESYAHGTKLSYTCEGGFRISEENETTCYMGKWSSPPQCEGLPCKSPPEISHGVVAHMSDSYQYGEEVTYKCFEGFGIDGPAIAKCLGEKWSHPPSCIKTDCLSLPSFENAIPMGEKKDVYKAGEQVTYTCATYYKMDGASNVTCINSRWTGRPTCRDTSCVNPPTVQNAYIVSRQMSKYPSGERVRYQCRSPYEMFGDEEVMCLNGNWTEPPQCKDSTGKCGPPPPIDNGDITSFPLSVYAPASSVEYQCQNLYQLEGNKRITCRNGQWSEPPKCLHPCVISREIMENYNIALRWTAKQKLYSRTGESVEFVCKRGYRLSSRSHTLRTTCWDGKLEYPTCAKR

B1: GST:Hic^39-261 fusion protein (other)
chain: EKEVTTQVATSSNKANKSQTEHMKAAKQVDEYIEKMLSEIQLDRRKHTQNVGLLTKLGAIKTEYLRGLSVSKEKSTAELPSEIKEKLTAAFEQFKKDTLKSGKKVAEAQKKAKDQKEAKQEIEALIVKHKGREIDLDRKKAKAAVTEHLKKLLNDIEKNLKKEQHTHTVELIKNLKDIEKTYLHKLDESTQKAQLQKLIAESQSKLDEAFSKFKNGLSSSSNS
notes: main band 54 kDa, partly degraded; Vector-derived residues after the EcoRI site, if any, are not described; also called fusion between GST and the NH2-terminal Hic region; not shown: glutathione S-transferase (GST) encoded by vector pGEX-5X-3 (Pharmacia Biotech); vector-encoded residues between GST and the BamHI cloning site of pGEX-5X-3
Ka: 5e+07 M⁻¹
Kd: 23 nM
koff: 0.00061 s⁻¹
kon: 28000 M⁻¹ s⁻¹
